Test results as given in patent US20240336701A1 (Novartis, published 2024).

T1: human ENTPD2, full length, on cells (human, UniProt Q9Y5L3 1-495)
T1 sequence: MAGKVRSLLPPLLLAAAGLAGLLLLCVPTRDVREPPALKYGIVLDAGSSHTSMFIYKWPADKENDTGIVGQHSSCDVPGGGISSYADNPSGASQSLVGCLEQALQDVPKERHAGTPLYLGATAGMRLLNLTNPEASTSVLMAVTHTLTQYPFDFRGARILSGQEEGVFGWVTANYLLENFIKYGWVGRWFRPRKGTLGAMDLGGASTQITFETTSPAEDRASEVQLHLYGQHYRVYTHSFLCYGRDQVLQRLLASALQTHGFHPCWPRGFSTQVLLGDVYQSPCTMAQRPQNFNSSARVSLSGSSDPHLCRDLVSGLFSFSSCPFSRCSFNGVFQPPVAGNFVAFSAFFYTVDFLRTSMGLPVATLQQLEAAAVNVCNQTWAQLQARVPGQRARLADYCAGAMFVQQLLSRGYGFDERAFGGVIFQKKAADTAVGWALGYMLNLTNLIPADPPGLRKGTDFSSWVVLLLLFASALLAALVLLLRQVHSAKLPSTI

T2: cynomolgus ENTPD2, full length, on cells (cynomolgus macaque, UniProt Q9Y5L3 1-495 (human entry))
T2 chain: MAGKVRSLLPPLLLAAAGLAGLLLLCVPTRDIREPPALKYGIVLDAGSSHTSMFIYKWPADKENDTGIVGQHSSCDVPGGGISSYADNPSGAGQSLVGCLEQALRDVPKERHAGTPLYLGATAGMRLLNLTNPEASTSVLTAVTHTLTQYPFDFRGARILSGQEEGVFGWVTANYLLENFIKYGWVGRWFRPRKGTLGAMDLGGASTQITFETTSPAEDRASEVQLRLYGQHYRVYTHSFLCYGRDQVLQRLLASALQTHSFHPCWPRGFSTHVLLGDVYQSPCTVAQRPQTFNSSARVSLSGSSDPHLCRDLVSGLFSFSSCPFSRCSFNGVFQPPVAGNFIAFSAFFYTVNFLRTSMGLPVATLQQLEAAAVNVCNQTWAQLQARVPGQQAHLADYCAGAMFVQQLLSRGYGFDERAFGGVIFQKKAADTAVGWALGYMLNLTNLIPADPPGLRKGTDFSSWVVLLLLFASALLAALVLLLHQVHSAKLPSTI


Assays:
Assay in all cases: cell-based or functional assay
[1] = molecular target: recombinant human ENTPD2 extracellular domain (residues 29-462) with C-terminal Avi-His6 tag (human, UniProt Q9Y5L3 29-462)
[2] = molecular target: T1, human ENTPD2, full length, on cells
[3] = molecular target: T2, cynomolgus ENTPD2, full length, on cells

Binder	ENTPD2 Biochemical Assay at 1 uM ATP IC50 [1] [nM]	Human ENTPD2 NIH/3T3 Assay % inhibition [2] [%]	Human ENTPD2 NIH/3T3 Assay IC50 [2] [nM]	RKO Assay % inhibition [2] [%]	RKO Assay IC50 [2] [nM]	Cyno ENTPD2 NIH/3T3 Assay % inhibition [3] [%]	Cyno ENTPD2 NIH/3T3 Assay IC50 [3] [nM]
ANTI-HUMAN ENTPD2 MAB19 (antibody, human IgG1, kappa, V domains shown) VH: EVQLQQFGAELVKPGTSVKISCKASGYTFTDYNMDWVKQSHGKSLEWIGDINPNYDITTYNQRFKGKATLTVDKSSSTAYMELRSLTSEDTAVYYCARRGFFPYYGNSYYYFDVWGAGTTVTVSS VL: QIVLTQSPTIMSASLGEEITLTCSASSSVSYMHWYQQKSGTSPKLLIYSTSNLASGVPSRFSGSGSGTFYSLTISSVEAEDAADYYCHQWSNYPWTFGGGTKLEIKR	4.09						
ANTI-HUMAN ENTPD2 MAB20 (antibody, human IgG1, kappa, V domains shown) VH: EVQLQQFGAELVKPGASVKISCKASGYTFTDYNMDWVKQSHGKSLEWIGDINPNYDITSYNQKFKGKATLTVDKSSSTAYMELRSLTSEDTAVYYCARRGFFLYYGSSYYYFDVWGAGTTVTVSS VL: QIVLTQSPAIMSASLGEEITLTCSASSSVSYMHWYQQKSGTSPKLLIYSTSNLASGVPSRFSGSGSGTFYSLTISSVEAEDAADYYCHQWSSYPWTFGGGTKLEIKR	17.5						
ANTI-HUMAN ENTPD2 MAB2 (antibody, human IgG1, kappa) heavy: not shown light: EIVLTQSPATLSASPGERITLSCSASSSVSYIHWYQQKPGQAPRLLIYSTSNLASGIPARFSGSGSGTFYTLTISSVEPEDAAVYYCHQWSSYPWTFGGGTKLEIKRTVAAPSVFIFPPSDEQLKSGTASVVCLLNNFYPREAKVQWKVDNALQSGNSQESVTEQDSKDSTYSLSSTLTLSKADYEKHKVYACEVTHQGLSSPVTKSFNRGEC		98	1.4	86	0.8	84	2.7
ANTI-HUMAN ENTPD2 MAB3 (antibody, human IgG1, kappa, V domains shown) VH: QVQLVQSGAEVVKPGASVKISCKASGYTFTDYNMDWVKQAPGQRLEWIGDINPKYDISTYNQQFKGKATITVDTSASTAYMELSSLRSEDTAVYYCARRGFFLYYGINYYYFDVWGQGTLVTVSS VL: EIVLTQSPATLSASPGERITLSCSASSSVSYIHWYQQKPGQAPRLLIYSTSNLASGIPARFSGSGSGTFYTLTISSVEPEDAAVYYCHQWSSYPWTFGGGTKLEIKR		91	1.8	95	1.6	84	5.8
ANTI-HUMAN ENTPD2 MAB7 (antibody, human IgG1, kappa) heavy: not shown light: EIVLTQSPATLSASPGEEITLSCSASSSVSYIHWYQQKPGQAPRLLIYSTSNLASGIPARFSGSGSGTFYTLTISSVEPEDAAVYYCHQWSSYPWTFGGGTKLEIKRTVAAPSVFIFPPSDEQLKSGTASVVCLLNNFYPREAKVQWKVDNALQSGNSQESVTEQDSKDSTYSLSSTLTLSKADYEKHKVYACEVTHQGLSSPVTKSFNRGEC		95	0.8	92	0.6	82	2.7
ANTI-HUMAN ENTPD2 MAB4 (antibody, human IgG1, kappa, V domains shown) VH: QIQLQESGPGLVKPSQTLSLTCTVSGYSITSGYYWNWIRQHPGKGLEWIGYISYDADNNYNPSLKNRVTISRDTSKNQFSLKLSSVTAADTAVYYCAGGYYRYGLGSYRGSYYYVMDYWGQGTTVTVSS VL: ETVLTQSPATLSVSPGERATISCKASQSVDYEGHSYMNWYQQKPGQAPRLLIYAASNLESGIPARFSGSGSGTDFTLTISSVEPEDAATYYCQQSNEDPPTFGGGTKLEIKR		87	0.2	74	0.2	75	2.2
ANTI-HUMAN ENTPD2 MAB5 (antibody, human IgG1, kappa, V domains shown) VH: QIQLQESGPGLVKPSQTLSLTCTVSGYSITSGYYWNWIRQHPGKGLEWIGYISYDADNNYNPSLKNRVTISRDTSKNQFSLKLSSVTAADTAVYYCAGGYYRYGLGSYRGSYYYVMDYWGQGTTVTVSS VL: ETVLTQSPATLSVSPGERATISCKASQSVDYDGNSYMNWYQQKPGQAPRLLIYAASNLESGIPARFSGSGSGTDFTLTISSVEPEDAATYYCQQSNEDPPTFGGGTKLEIKR		95	0.3	80	0.2	80	1.5
ANTI-HUMAN ENTPD2 MAB6 (antibody, human IgG1, kappa, V domains shown) VH: QVQLQESGPGLVKPSQTLSLTCTVSGYSITSGYYWNWIRQHPGKGLEWMGYISYDADNNYNPSLKNRITISRDTSKNQFSLKLSSVTAADTAVYYCAGGYYRYGLGSYSGSYYYVMDYWGQGTTVTVSS VL: DTQMTQSPSSLSVSVGDRATITCKASQSVDYEGHSYMNWYQQKPGKAPKLLIYAASNLESGVPSRFSGSGSGTDFTLTISSVQPEDFATYYCQQSNEDPPTFGGGTKLEIKR		95	0.3	90	0.2	73	3.3
ANTI-HUMAN ENTPD2 MAB8 (antibody, human IgG1, lambda, V domains shown) VH: QVQLQQSGPGLVKPSQTLSLTCAISGDSVSSSSAAWNWIRQSPSRGLEWLGRIYYRSKWYNDYAVSVKSRITINPDTSKNQFSLQLNSVTPEDTAVYYCARGSYVTSSYEGFDYWGQGTLVTVSS VL: SYELTQPLSVSVALGQTARITCSGDNLPEKYAYWYQQKPGQAPVLVIYDDNKRPSGIPERFSGSNSGNTATLTISRAQAGDEADYYCQSYGKWGWTWVFGGGTKLTVLG		97	0.1	95	0.2	96	0.9
ANTI-HUMAN ENTPD2 MAB9 (antibody, human IgG1, lambda, V domains shown) VH: QVQLVQSGAEVKKPGSSVKVSCKASGGTFDSYAVSWVRQAPGQGLEWMGRIVPWLGHTQYAQKFQGRVTITADESTSTAYMELSSLRSEDTAVYYCARESPGYRYSFDVWDQGTLVTVSS VL: SYELTQPLSVSVALGQTARITCSGDAIGEKYVYWYQQKPGQAPVLVIYDDNNRPSGIPERFSGSNSGNTATLTISRAQAGDEADYYCASYDLQQARWVFGGGTKLTVLG		92	0.3	70	0.1	71	0.3
ANTI-HUMAN ENTPD2 MAB10 (antibody, human IgG1, lambda, V domains shown) VH: QVQLVQSGAEVKKPGSSVKVSCKASGGTFDSYAVSWVRQAPGQGLEWMGRIVPWLGFTRYAQKFQGRVTITADESTSTAYMELSSLRSEDTAVYYCARESPGYRYSFDVWDQGTLVTVSS VL: SYELTQPLSVSVALGQTARITCSGDAIGEKYVYWYQQKPGQAPVLVIYDDNNRPSGIPERFSGSNSGNTATLTISRAQAGDEADYYCASYDLQQARWVFGGGTKLTVLG		88	0.4	77	0.2	86	0.5
ANTI-HUMAN ENTPD2 MAB11 (antibody, human IgG1, kappa, V domains shown) VH: EVQLLESGGGLVQSGGSLRLSCAASGFTFSSYAMSWVRQAPGKGLEWVSVISGSGGSTYYADSVKGRFTISRDNSKNTLYLQMNSLRAEDTAVYYCARGDDYGDDYYYYGMDVWGQGTTVTVSS VL: not shown		55	1.5				
ANTI-HUMAN ENTPD2 MAB12 (antibody, human IgG1, kappa, V domains shown) VH: EVLLVESGGGLVQPGGSLRLSCAASGFTFNSCSMNWVRQAPGKGLEWVSYISSSSSTIYYADSVKGRFTISRDNAKNSLYLQMNSLKDEDTAVYYCARDQGNWNYDDYYNGLDVWGQGTTVTVSS VL: not shown		68	26.6				
ANTI-HUMAN ENTPD2 MAB18 (antibody, human IgG1, kappa, V domains shown) VH: DIQLQESGPGLVKPSQSLSLTCSVTGYSITSGYYWNWIRQFPGNKLEWMGYISYDGDNNYNPSLKNRISITRDTSKNQFFLKLSSVTTEDTATYYCAGGYYRYGLGSYSGSYYYVMDYWGQGTSVTVSS VL: DTVLTQSPASLAVSLGQRATISCKASQSVDYDGNSYMNWYQQKPGQPPKLLIYAASNLESGIPARFSGSGSGTDFTLNIHPVEEEDAATYYCQQSNEDPPTFGGGTKLEIKR		88	0.4			68	20
